B1: Cellular retinoic acid binding protein II (CRABP-II) (natural protein)
chain: MPNFSGNWKIIRSENFEELLKVLGVNVMLRKIAVAAASKPAVEIKQEGDTFYIKTSTTVRTTEINFKVGEEFEEQTVDGRPCKSLVKWESENKMVCEQKLLKGEGPKTSWTRELTNDGELILTMTADDVVCTRVYVRE

What was measured:
CYP2C8 Supersomes = CYP2C8 Supersomes (UniProt P10632)
CYP3A4 Supersomes = CYP3A4 Supersomes (UniProt P08684)
Recombinant CYP26B1 = target: T1, Recombinant CYP26B1 (UniProt Q9NR63)
T1 sequence: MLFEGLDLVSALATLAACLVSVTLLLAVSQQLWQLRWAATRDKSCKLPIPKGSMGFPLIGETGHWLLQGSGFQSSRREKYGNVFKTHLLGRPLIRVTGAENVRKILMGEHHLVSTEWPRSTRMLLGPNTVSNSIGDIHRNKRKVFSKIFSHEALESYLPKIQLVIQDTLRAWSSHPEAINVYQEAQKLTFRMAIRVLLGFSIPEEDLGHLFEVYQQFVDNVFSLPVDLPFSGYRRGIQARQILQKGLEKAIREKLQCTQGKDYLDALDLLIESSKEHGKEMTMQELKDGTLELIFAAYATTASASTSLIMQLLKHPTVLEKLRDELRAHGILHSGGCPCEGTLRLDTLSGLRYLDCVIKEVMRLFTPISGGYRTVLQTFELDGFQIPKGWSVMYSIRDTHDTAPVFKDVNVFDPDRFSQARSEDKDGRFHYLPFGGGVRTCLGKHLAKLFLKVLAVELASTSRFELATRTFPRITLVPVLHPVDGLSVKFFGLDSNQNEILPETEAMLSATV

Chain of UniProt P10632 (P10632 whole entry): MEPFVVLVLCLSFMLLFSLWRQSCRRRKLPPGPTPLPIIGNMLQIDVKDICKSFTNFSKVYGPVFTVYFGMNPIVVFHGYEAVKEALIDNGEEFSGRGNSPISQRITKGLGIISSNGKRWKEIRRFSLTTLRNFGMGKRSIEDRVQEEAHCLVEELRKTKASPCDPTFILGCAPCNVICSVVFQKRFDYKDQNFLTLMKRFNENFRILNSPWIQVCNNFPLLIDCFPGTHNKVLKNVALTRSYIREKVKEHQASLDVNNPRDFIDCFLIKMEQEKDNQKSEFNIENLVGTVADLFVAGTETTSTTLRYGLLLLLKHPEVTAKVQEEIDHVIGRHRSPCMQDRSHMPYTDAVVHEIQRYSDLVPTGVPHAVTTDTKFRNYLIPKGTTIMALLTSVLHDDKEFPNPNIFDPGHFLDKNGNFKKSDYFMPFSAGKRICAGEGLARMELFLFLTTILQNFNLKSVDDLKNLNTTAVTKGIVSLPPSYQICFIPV
Chain of UniProt P08684 (P08684 whole entry): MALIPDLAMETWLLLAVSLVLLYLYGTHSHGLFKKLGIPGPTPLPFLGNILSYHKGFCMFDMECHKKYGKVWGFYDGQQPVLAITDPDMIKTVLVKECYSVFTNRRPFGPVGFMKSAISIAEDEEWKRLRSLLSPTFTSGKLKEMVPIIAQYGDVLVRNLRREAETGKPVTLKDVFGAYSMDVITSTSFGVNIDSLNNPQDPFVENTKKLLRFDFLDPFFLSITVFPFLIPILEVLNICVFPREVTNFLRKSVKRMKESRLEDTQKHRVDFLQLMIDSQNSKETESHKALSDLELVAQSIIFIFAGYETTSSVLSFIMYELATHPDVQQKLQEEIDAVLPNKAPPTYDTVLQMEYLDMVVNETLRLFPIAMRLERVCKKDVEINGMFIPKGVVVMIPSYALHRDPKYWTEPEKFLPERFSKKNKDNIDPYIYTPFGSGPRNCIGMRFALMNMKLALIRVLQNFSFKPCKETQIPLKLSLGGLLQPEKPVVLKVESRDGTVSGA

Molecule | decrease of 4-OH-RA formation by CYP2C8 with 1 uM holo-CRABP-I against free atRA (CYP2C8 Supersomes) | decrease of 4-OH-RA formation by CYP3A4 with 1 uM holo-CRABP-I against free atRA (CYP3A4 Supersomes) | apparent Km of 4-OH-RA formation by CYP26B1 with holo-CRABP-I as substrate (Recombinant CYP26B1) | apparent Km of 4-OH-RA formation by CYP26B1 with holo-CRABP-II as substrate (Recombinant CYP26B1)
Cellular retinoic acid binding protein I (CRABP-I) (from UniProt P29762 1-137) (natural protein) | 98% | 98% | 0.0217 µM | 
B1 |  |  |  | 0.0243 µM

From PMC4997814
